The results in this text go back to article PMC11016754, “Allosteric Probe-Based Colorimetric Assay for Direct Identification and Sensitive Analysis of Methicillin Resistance of Staphylococcus aureus”.

This series deals with T1, PBP2a (penicillin binding protein 2a) (Staphylococcus aureus …, UniProt Q53707 25-668).
T1 sequence: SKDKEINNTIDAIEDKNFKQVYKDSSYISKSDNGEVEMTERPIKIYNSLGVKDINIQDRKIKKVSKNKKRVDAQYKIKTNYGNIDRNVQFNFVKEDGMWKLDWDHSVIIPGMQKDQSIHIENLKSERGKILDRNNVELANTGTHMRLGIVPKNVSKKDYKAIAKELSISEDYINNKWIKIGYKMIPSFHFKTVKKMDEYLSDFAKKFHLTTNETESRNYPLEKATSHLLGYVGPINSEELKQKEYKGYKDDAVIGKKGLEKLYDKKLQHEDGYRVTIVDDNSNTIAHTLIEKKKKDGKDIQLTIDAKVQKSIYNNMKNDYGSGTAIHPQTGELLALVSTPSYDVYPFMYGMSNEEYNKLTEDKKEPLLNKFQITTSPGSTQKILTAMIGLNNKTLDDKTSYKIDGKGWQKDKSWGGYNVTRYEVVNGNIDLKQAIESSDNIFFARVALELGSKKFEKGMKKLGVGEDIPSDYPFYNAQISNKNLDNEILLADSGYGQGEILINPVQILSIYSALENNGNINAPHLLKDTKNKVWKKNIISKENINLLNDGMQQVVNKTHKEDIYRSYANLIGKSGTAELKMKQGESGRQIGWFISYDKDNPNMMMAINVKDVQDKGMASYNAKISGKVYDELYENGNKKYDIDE
The experiment in a line: fluorescence dequenching (FAM/BHQ hairpin opening); Binding-assay buffer not stated; amplification assay in PBS, room temperature, 60 min, 100 nM H1. Conditions: label: FAM and BHQ at the two termini.

B1: H1 probe (allosteric hairpin with PBP2a aptamer section d) (structured_DNA)
DNA: CACCCCACCTCGCTCCCGTGACACTAATGCTATTTTTTTTTATTTCTTTATCCTCAGCTTAGTGTCACTAAGC
As for B1, the binding result is “binds”.
